Measurements: article PMC7767363, “Development of HER2-Specific Aptamer-Drug Conjugate for Breast Cancer Therapy”

Biological target: HER2 (His-tagged HER2 protein) (UniProt P04626 23-652)
Assay: Ni-NTA bead pull-down with RT-qPCR quantification; 1.5 mM Mg2+; 3 nM HER2, aptamer 0-100 nM; 30 mM Tris-HCl, 150 mM NaCl, 1.5 mM MgCl2, pH not stated, 30 min at room temperature (bead assay); cells 37 C, 30 min to 4 h
Details: tags: His

B1: HER2 RNA aptamer (2'-F pyrimidine) (XNA)
RNA: AGCCGCGAGGGGAGGGAUAGGGUAGGGCGCGGCU
modifications: 2'-fluoro C and U (all pyrimidines)
Kd: 16.5 ± 4.4 nM
